No end group written: not given here.
Molecular target: T1, rTaspase1 (Homo sapiens, UniProt Q9H6P5)
T1 construct: Full-length Taspase1 was cloned from 293T cell cDNA and inserted into the Myc/Flag doubly-tagged expression vector; made in house; host or cells: E. coli BL21(DE3)
T1 sequence (Q9H6P5 1-233): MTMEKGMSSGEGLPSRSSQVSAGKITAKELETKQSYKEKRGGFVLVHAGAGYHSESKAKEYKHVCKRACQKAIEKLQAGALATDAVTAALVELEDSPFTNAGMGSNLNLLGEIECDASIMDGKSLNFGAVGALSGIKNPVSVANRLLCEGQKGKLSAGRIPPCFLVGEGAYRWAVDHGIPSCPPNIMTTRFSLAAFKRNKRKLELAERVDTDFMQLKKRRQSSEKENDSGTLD
T1 sequence (Q9H6P5 234-420): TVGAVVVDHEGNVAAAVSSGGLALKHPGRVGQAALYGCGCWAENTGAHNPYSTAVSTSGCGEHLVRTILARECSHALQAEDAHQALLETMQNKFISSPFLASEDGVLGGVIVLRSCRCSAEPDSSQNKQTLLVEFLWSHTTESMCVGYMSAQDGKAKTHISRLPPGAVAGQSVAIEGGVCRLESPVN
Experiment: In vitro cleavage assay: labeled MLL substrate incubated with rTaspase1 and peptide inhibitor, SDS-PAGE and autoradiography
Type: biochemical
Settings: for inhibitory effect on the rTaspase1 enzyme (MLL substrate cleavage) / dose response: effectiveness of polypeptide-aldehyde Taspase1 inhibitors: 5 ng rTaspase1, 20 minutes; for inhibitory effect on the rTaspase1 enzyme (MLL substrate cleavage): then labeled substrate 60 minutes at 37° C.; for dose response: effectiveness of polypeptide-aldehyde Taspase1 inhibitors: concentrations of FIGS. 11A-11C
Protocol: Polypeptides of varying length (i.e., 4 to 7 amino acids in length) were prepared to identify preferred lengths and sequences of polypeptide inhibitors of Taspase1. The polypeptide inhibitors were based on the amino acid sequence that includes a upstream portion of the CS2 cleavage site of MLL as well as a portion of the CS2 cleavage site (See FIG. 1B and FIG. 9). The peptide inhibitors were purchased from Tufts University Peptide Core Facility and AnaSpec Inc. of San Jose, Calif. 1 mM of each of the inhibitors was incubated with 5 ng of rTaspase1 for 20 minutes before adding labeled substrate for another 60 minutes at 37° C. The results were analyzed by SDS-PAGE followed by autoradiography.
In order to determine a preferred length of polypeptide inhibitors of Taspase1, dose responses were tested for a six amino acid polypeptide inhibitor (KISQLA) (SEQ ID NO:8) and a five amino acid polypeptide inhibitor (ISQLA) (SEQ ID NO:7). The polypeptides were incubated at the concentrations depicted in FIG. 10 with 5 ng of rTaspase1 for 20 minutes before adding labeled MLL substrate for another 60 minutes at 37° C. The results were analyzed by SDS-PAGE followed by autoradiography.
Three modified polypeptide inhibitors were prepared wherein the carboxy terminals of the polypeptides were replaced with an aldehyde (SQLA-aldehyde (SEQ ID NO:17), SQLD-aldehyde (SEQ ID NO:9), and KISQLD-aldehyde (SEQ ID NO:11)). Chemical syntheses of these modified polypeptides is well known to one of skill in the art, and the modified polypeptides are also are available commercially at AnaSpec Inc. of San Jose, Calif. The polypeptides were incubated in the concentrations depicted in FIGS. 11A-11C with 5 ng of rTaspase1 for 20 minutes before adding labeled MLL substrate for another 60 minutes at 37° C. The results were analyzed by SDS-PAGE followed by autoradiography. […] Accordingly, the modified polypeptides can keep the active site of the enzyme occupied for a greater length of time, blocking entrance of the MLL substrate from entering the active site as required for cleavage. […] (See FIG. 11C.).
^35S-methionine labeled MLL substrate was incubated with 2 μl of indicated subcellular fractions or specified amounts of rTaspase1 in cleavage buffer (100 mM HEPES [pH 7.9], 5 mM MgCl2, 20 mM KCl, 5 mM DTT, and 10% sucrose) for 1 hour at 37° C. or indicated periods of time. Protease inhibitors utilized include 8.5 μM Phosphoramidon, 100 μM TLCK, 100 μM TPCK, 5 mM Iodoacetamide, 5 mM N-Ethylmaleimide, 0.3 μM Aprotinin, 100 μM Leupeptin, 1 μM Pepstatin, 1× Complete protease inhibitor cocktail (Roche), 100 μM Antipain, 100 μM APMSF, 10 μM Bestatin, 25 μM ALLN, 100 μM Chymostatin, […] E-64, 5 mM EDTA, 1 mM PMSF, 1 mM EGTA, 50 μM BAF (Boc-Aspartyl-FMK), and 50 μM z-VAD (z-VAD-FMK).

[1] = then labeled MLL substrate 60 minutes at 37° C.

| inhibitory effect on the rTaspase1 enzyme (MLL substrate cleavage) (1 mM inhibitor, FIG. 9) | Substance | other results |
| --- | --- | --- |
| – | Ile-Ser-Gln-Leu-Ala (ISQLA; listed as Homo sapiens) | dose response: effectiveness as Taspase1 inhibitor, five versus six amino acid polypeptide (concentrations of FIG. 10, 5 ng rTaspase1, 20 minutes, then labeled MLL substrate 60 minutes at 37° C.): more effective inhibitor at lower concentrations than the corresponding six amino acid polypeptide |
| little inhibitory effect | Ile-Ser-Gln-Leu-Asp (ISQLD; listed as Homo sapiens) | – |
| inhibitory effect was observed | KISQA: polypeptide with P1 alanine and omission of the leucine residue at P2 (listed as Homo sapiens) | inhibition of rTaspase1 relative to ISQLA (P2 leucine omitted) (1 mM inhibitor, 5 ng rTaspase1, FIG. 9): significantly decreased inhibition |
| inhibitory effect was observed | KISQLA | – |
| little inhibitory effect | KISQLD: six amino acid polypeptide based on the sequence upstream of the CS2 cleavage site of MLL (listed as Homo sapiens) | – |
| inhibitory effect was observed | KISdQLA: polypeptide where the P1 aspartate residue was substituted for an alanine residue (KISDQLA; not fully specified (residue 4); printed as KISdQLA; listed as Homo sapiens) | – |
| – | Lys-Ile-Ser-Gln-Leu-Asp-aldehyde (KISQLD-aldehyde) | dose response: effectiveness of polypeptide-aldehyde Taspase1 inhibitors [1]: more effective than both of the four amino acid aldehyde |
| little inhibitory effect | SQLD: four amino acid polypeptide based on the sequence upstream of the CS2 cleavage site of MLL (listed as Homo sapiens) | – |
| – | Ser-Gln-Leu-Asp-aldehyde (SQLD-aldehyde) | dose response: effectiveness of polypeptide-aldehyde Taspase1 inhibitors [1]: more effective inhibitor than the SQLA-aldehyde |
